The target of one data set is T1, P-gp (Homo sapiens, UniProt P08183).
T1 construct: expressed in transfected cells; host or cells: MDCKII
Kind of data set: Transwell assay, MDCKII cells stably expressing P-gp. In kind it is cell-based. Conditions: PSC833 10 µmol/L; 100 µmol/L doxorubicin. How it is done:
In brief, MDCKII cells stably expressing P-gp or BCRP were seeded on 0.4 µm Transwell® membrane inserts (200.000 cells/insert; Ø6.5 mm, growth area 0.33 cm2) and allowed to differentiate for five days. The integrity of the monolayer was confirmed by monitoring the trans-epithelial electrical resistance (TEER) using the EVOMX system (WPI, Sarasota, FL, USA). […] Every 30 min, the incubation buffer was removed from the receiver compartment and replaced by a freshly preheated buffer for a total time of 2.5 h.

For data set [1], the system named is breast cancer cell lines MCF-7, MDA-MB-231, ZR-75-1. Description: Resazurin cell viability assay in breast cancer cell lines. Conditions: 100 µM MPP+, 100 µmol/L doxorubicin, 72 h. The protocol:
Resazurin-Assay: To determine cell viability, cells were seeded at a density of 10,000 cells/well in 96-well multiplates. […] Afterward, 100 µL from each well was placed in a cavity of a 96-well plate, and the fluorescence was determined on a microplate reader (TECAN infinite M200, Tecan GmbH, Crailsheim, Germany) at an excitation wavelength of 530 nm and an emission wavelength of 590 nm.
Background: Alamar Blue is a resazurin reagent that responds to reducing activity.

Substrate in data set [2]: COc1cccc2c1C(=O)c1c(O)c3c(c(O)c1C2=O)C[C@@](O)(C(=O)CO)C[C@@H]3O[C@H]1C[C@H](N)[C@H](O)[C@H](C)O1
Description: cells, lysate or membranes. Conditions: other: MDCKII-OCT3; doxorubicin 0–100 µmol/L; 3 min; mean ± SD; 37.0 °C.

Substrate in data set [3]: COc1cccc2c1C(=O)c1c(O)c3c(c(O)c1C2=O)C[C@@](O)(C(=O)CO)C[C@@H]3O[C@H]1C[C@H](N)[C@H](O)[C@H](C)O1

Where two headings read alike, the source gives them in different places.

T1 sequence (P08183 whole entry): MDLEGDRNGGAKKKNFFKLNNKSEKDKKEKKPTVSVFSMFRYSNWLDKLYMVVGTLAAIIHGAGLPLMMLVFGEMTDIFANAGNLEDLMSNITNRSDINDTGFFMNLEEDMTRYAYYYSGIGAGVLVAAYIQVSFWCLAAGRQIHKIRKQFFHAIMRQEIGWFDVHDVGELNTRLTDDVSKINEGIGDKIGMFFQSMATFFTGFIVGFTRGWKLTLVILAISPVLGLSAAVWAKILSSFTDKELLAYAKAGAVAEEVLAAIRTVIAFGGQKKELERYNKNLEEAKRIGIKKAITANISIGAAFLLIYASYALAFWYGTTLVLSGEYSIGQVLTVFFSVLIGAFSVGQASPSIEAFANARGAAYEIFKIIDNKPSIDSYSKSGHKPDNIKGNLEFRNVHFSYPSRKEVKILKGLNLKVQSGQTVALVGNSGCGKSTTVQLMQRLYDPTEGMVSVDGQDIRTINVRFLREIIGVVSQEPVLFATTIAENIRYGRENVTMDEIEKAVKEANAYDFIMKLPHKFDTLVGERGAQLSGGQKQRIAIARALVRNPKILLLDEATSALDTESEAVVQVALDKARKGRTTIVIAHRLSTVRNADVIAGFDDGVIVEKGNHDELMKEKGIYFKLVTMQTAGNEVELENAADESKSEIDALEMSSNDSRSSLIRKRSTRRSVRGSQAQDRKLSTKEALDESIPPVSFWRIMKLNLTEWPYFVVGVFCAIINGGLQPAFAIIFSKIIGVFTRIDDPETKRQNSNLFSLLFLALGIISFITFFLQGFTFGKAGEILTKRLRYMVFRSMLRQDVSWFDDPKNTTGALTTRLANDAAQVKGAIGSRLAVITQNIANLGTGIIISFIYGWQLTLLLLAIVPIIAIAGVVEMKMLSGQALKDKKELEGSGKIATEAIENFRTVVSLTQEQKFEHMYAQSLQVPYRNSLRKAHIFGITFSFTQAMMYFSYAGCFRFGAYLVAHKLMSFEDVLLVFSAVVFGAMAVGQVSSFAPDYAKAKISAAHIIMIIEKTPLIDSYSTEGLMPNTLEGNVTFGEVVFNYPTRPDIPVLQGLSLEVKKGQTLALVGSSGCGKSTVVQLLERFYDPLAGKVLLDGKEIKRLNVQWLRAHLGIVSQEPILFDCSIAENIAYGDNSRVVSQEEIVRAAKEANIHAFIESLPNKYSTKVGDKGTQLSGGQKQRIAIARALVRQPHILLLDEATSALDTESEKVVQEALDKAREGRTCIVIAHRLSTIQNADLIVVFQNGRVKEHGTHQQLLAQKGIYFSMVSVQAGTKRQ

As for `C/C=C/C[C@@H](C)C(=O)[C@H]1C(=O)N[C@@H](C(C)C)C(=O)N(C)CC(=O)N(C)[C@@H](CC(C)C)C(=O)N[C@@H](C(C)C)C(=O)N(C)[C@@H](CC(C)C)C(=O)N[C@@H](C)C(=O)N[C@H](C)C(=O)N(C)[C@@H](CC(C)C)C(=O)N(C)[C@@H](CC(C)C)C(=O)N(C)[C@@H](C(C)C)C(=O)N1C` [PSC833], at P-gp, the “effect of inhibitor on P-gp-mediated vectorial transport of doxorubicin” value is “markedly reduced”.
Consider `C[n+]1ccc(-c2ccccc2)cc1` [MPP+], for which, in data set [1], the “effect of inhibitor on cytotoxic effects of doxorubicin” value is listed as “significantly attenuated”.

B1: OCT3 (Homo sapiens) (protein)
chain: MPSFDEALQRVGEFGRFQRRVFLLLCLTGVTFAFLFVGVVFLGTQPDHYWCRGPSAAALAERCGWSPEEEWNRTAPASRGPEPPERRGRCQRYLLEAANDSASATSALSCADPLAAFPNRSAPLVPCRGGWRYAQAHSTIVSEFDLVCVNAWMLDLTQAILNLGFLTGAFTLGYAADRYGRIVIYLLSCLGVGVTGVVVAFAPNFPVFVIFRFLQGVFGKGTWMTCYVIVTEIVGSKQRRIVGIVIQMFFTLGIIILPGIAYFIPNWQGIQLAITLPSFLFLLYYWVVPESPRWLITRKKGDKALQILRRIAKCNGKYLSSNYSEITVTDEEVSNPSFLDLVRTPQMRKCTLILMFAWFTSAVVYQGLVMRLGIIGGNLYIDFFISGVVELPGALLILLTIERLGRRLPFAASNIVAGVACLVTAFLPEGIAWLRTTVATLGRLGITMAFEIVYLVNSELYPTTLRNFGVSLCSGLCDFGGIIAPFLLFRLAAVWLELPLIIFGILASICGGLVMLLPETKGIALPETVDDVEKLGSPHSCKCGRNKKTPVSRSHL
For the molecule B1, the Km (usually the substrate concentration at which the rate is half of its maximum) in data set [2] stood at 13.0 ± 10.7 µM.

B2: OCT2 (Homo sapiens) (protein)
chain: MPTTVDDVLEHGGEFHFFQKQMFFLLALLSATFAPIYVGIVFLGFTPDHRCRSPGVAELSLRCGWSPAEELNYTVPGPGPAGEASPRQCRRYEVDWNQSTFDCVDPLASLDTNRSRLPLGPCRDGWVYETPGSSIVTEFNLVCANSWMLDLFQSSVNVGFFIGSMSIGYIADRFGRKLCLLTTVLINAAAGVLMAISPTYTWMLIFRLIQGLVSKAGWLIGYILITEFVGRRYRRTVGIFYQVAYTVGLLVLAGVAYALPHWRWLQFTVSLPNFFFLLYYWCIPESPRWLISQNKNAEAMRIIKHIAKKNGKSLPASLQRLRLEEETGKKLNPSFLDLVRTPQIRKHTMILMYNWFTSSVLYQGLIMHMGLAGDNIYLDFFYSALVEFPAAFMIILTIDRIGRRYPWAASNMVAGAACLASVFIPGDLQWLKIIISCLGRMGITMAYEIVCLVNAELYPTFIRNLGVHICSSMCDIGGIITPFLVYRLTNIWLELPLMVFGVLGLVAGGLVLLLPETKGKALPETIEEAENMQRPRKNKEKMIYLQVQKLDIPLN
Regarding B2, the Km in data set [3] stood at 76.1 ± 42.8 µM.

B3: OCT1 (Homo sapiens) (protein)
chain: MPTVDDILEQVGESGWFQKQAFLILCLLSAAFAPICVGIVFLGFTPDHHCQSPGVAELSQRCGWSPAEELNYTVPGLGPAGEAFLGQCRRYEVDWNQSALSCVDPLASLATNRSHLPLGPCQDGWVYDTPGSSIVTEFNLVCADSWKLDLFQSCLNAGFLFGSLGVGYFADRFGRKLCLLGTVLVNAVSGVLMAFSPNYMSMLLFRLLQGLVSKGNWMAGYTLITEFVGSGSRRTVAIMYQMAFTVGLVALTGLAYALPHWRWLQLAVSLPTFLFLLYYWCVPESPRWLLSQKRNTEAIKIMDHIAQKNGKLPPADLKMLSLEEDVTEKLSPSFADLFRTPRLRKRTFILMYLWFTDSVLYQGLILHMGATSGNLYLDFLYSALVEIPGAFIALITIDRVGRIYPMAMSNLLAGAACLVMIFISPDLHWLNIIIMCVGRMGITIAIQMICLVNAELYPTFVRNLGVMVCSSLCDIGGIITPFIVFRLREVWQALPLILFAVLGLLAAGVTLLLPETKGVALPETMKDAENLGRKAKPKENTIYLKVQTSEPSGT
Consider B3, for which the Michaelis-Menten constant (Km) in data set [3] was 4.66 ± 3.43 µM.

(Values after PMC8745601 (International Journal of Molecular Sciences, 2021).)
